Test results reported in US12037595B2, “Rust resistance gene” (Commonwealth Scientific and Industrial Research Organisation, priority 2013, dated 2024).

Columns and labels:
[1] = target: T1, Wheat Lr67 (susceptible) protein, Lr67(sus), SUT sugar transporter, SEQ ID NO:4 (Triticum aestivum, UniProt W5ELX6); test: Concentration-dependent uptake of [14C] glucose in yeast expressing Lr67(sus); assay type: cell-based; settings: [14C] glucose uptake; Lr67(sus) expressed in hexose transport deficient Saccharomyces cerevisiae EBY.VW4000; Lineweaver-Burk linear regression
T1 construct: D-genome copy) in pRS416 with ADH1 promoter, expressed in S. cerevisiae EBY.VW4000 (hexose transport deficient)
T1 sequence (W5ELX6 1-514): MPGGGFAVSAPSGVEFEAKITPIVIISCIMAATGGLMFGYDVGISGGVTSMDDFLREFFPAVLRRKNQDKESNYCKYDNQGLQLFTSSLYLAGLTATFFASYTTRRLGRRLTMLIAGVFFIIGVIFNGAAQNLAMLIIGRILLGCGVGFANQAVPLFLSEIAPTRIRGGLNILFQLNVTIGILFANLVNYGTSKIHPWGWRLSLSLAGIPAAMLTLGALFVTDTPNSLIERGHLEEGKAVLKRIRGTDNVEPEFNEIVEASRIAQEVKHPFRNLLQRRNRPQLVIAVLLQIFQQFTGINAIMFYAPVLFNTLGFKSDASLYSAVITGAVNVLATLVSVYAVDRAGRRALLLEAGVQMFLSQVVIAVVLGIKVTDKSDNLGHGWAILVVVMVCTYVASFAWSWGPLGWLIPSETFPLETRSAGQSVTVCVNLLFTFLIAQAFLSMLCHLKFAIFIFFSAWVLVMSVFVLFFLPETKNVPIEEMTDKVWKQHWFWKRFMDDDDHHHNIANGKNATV
Procedure: (§1) The following experiments were completed using the protein coding regions for the Lr67 polypeptides (resistant and susceptible alleles) cloned into the yeast expression vector pRS416. This vector contained the constitutive ADH1 promoter and CYC1 terminator for expression of the inserted coding regions. The yeast strain employed was a hexose transport deficient variant of Saccharomyces cerevisiae named EBY.VW4000. Uptake was determined using radio labelled [^14C] glucose with incorporation radio-assayed by liquid scintillation counting.
(§2) The Lineweaver-Burk equation was used to convert data for linear regression analysis.

[2] = substrate: OC[C@H]1OC(O)[C@H](O)[C@@H](O)[C@@H]1O; test: cells, lysate or membranes; settings: other: [14C] glucose uptake; Lr67(sus) expressed in hexose transport deficient Saccharomyces cerevisiae EBY.VW4000; Lineweaver-Burk linear regression
[3] = test system: hexose transport deficient variant of Saccharomyces cerevisiae named EBY.VW4000; test: Glucose uptake by yeast cells expressing Lr67 polypeptides, radio labelled [14C] glucose; assay type: cell-based; settings: 100 μM [14C] glucose for 10 minutes, tested at 2 minute intervals, vs empty vector, FIG. 11
Description: as §1, with “EBY.VW4000.” for “EBY.VW4000. Uptake was determined using radio labelled [^14C] glucose with incorporation radio-assayed by liquid scintillation counting.”
as §2

Molecule: OC[C@H]1OC(O)[C@H](O)[C@@H](O)[C@@H]1O (stereo partly shown) [glucose]
- Vmax [1]: 3.02 nmol min^−1 g FW^−1

B1: Wheat Lr67 (susceptible) protein, Lr67(sus), SUT sugar transporter, SEQ ID NO:4 (Triticum aestivum) (protein)
chain: MPGGGFAVSAPSGVEFEAKITPIVIISCIMAATGGLMFGYDVGISGGVTSMDDFLREFFPAVLRRKNQDKESNYCKYDNQGLQLFTSSLYLAGLTATFFASYTTRRLGRRLTMLIAGVFFIIGVIFNGAAQNLAMLIIGRILLGCGVGFANQAVPLFLSEIAPTRIRGGLNILFQLNVTIGILFANLVNYGTSKIHPWGWRLSLSLAGIPAAMLTLGALFVTDTPNSLIERGHLEEGKAVLKRIRGTDNVEPEFNEIVEASRIAQEVKHPFRNLLQRRNRPQLVIAVLLQIFQQFTGINAIMFYAPVLFNTLGFKSDASLYSAVITGAVNVLATLVSVYAVDRAGRRALLLEAGVQMFLSQVVIAVVLGIKVTDKSDNLGHGWAILVVVMVCTYVASFAWSWGPLGWLIPSETFPLETRSAGQSVTVCVNLLFTFLIAQAFLSMLCHLKFAIFIFFSAWVLVMSVFVLFFLPETKNVPIEEMTDKVWKQHWFWKRFMDDDDHHHNIANGKNATV
- Km [2]: 73 µM
- Glucose uptake over time [3]: capable of transporting glucose at a higher rate than yeast cells expressing the Lr67 resistant allele or empty vector

B2: Lr67(res): Wheat Lr67 (resistant) protein, 514 amino acids, arginine at position 144 and leucine at position 387 (protein, listed as Triticum aestivum)
chain: MPGGGFAVSAPSGVEFEAKITPIVIISCIMAATGGLMFGYDVGISGGVTSMDDFLREFFPAVLRRKNQDKESNYCKYDNQGLQLFTSSLYLAGLTATFFASYTTRRLGRRLTMLIAGVFFIIGVIFNGAAQNLAMLIIGRILLRCGVGFANQAVPLFLSEIAPTRIRGGLNILFQLNVTIGILFANLVNYGTSKIHPWGWRLSLSLAGIPAAMLTLGALFVTDTPNSLIERGHLEEGKAVLKRIRGTDNVEPEFNEIVEASRIAQEVKHPFRNLLQRRNRPQLVIAVLLQIFQQFTGINAIMFYAPVLFNTLGFKSDASLYSAVITGAVNVLATLVSVYAVDRAGRRALLLEAGVQMFLSQVVIAVVLGIKVTDKSDNLGHGWAILLVVMVCTYVASFAWSWGPLGWLIPSETFPLETRSAGQSVTVCVNLLFTFLIAQAFLSMLCHLKFAIFIFFSAWVLVMSVFVLFFLPETKNVPIEEMTDKVWKQHWFWKRFMDDDDHHHNIANGKNATV
- Glucose uptake over time [3]: did not show detectable glucose transport activity above the control
